Consider four molecules from patent US20230167164A1 (IMMUNOWAKE, published 2023).

For assay [1], the target named is human IL-12 receptor complex (human, UniProt P42701 24-662; Q99665 24-862). The experiment in a line: cell-based or functional assay.
For assay [2], the target named is T1, CD8 on CD8+ T cells (human, UniProt P01732 22-235).
T1 construct: whole, on cells
The experiment in a line: FACS on CD8+ T cells.

Assay [3] addresses IL-23 receptor complex (UniProt P42701 24-662; Q5VWK5 24-629, limits assumed). The experiment in a line: cell-based or functional assay.

Sequence of IL-23 receptor complex (Q5VWK5 24-629 limits assumed, chain 2 of 2, other chains not shown): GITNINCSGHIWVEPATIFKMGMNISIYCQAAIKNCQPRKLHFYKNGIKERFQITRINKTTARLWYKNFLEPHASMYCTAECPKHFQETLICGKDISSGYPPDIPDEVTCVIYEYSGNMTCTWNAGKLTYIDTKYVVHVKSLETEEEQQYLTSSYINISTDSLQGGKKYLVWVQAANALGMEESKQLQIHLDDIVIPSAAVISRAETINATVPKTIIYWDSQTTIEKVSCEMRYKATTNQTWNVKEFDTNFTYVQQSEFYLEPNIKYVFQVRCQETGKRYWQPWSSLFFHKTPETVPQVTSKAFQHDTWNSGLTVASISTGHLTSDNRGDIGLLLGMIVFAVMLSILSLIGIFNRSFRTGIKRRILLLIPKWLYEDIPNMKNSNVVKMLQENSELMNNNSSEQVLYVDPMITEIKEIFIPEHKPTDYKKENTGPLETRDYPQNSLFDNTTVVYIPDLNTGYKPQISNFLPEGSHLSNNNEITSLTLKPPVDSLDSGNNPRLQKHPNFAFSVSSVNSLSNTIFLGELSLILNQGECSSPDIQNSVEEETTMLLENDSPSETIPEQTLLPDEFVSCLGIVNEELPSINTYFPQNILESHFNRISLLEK
T1 sequence (P01732 22-235): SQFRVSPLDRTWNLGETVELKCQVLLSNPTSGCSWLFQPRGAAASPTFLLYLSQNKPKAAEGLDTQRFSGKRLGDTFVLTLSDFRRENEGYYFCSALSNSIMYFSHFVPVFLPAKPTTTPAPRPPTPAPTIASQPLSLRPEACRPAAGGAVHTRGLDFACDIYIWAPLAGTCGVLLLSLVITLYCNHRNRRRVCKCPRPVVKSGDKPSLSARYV
Sequence of human IL-12 receptor complex (Q99665 24-862, chain 2 of 2, other chains not shown): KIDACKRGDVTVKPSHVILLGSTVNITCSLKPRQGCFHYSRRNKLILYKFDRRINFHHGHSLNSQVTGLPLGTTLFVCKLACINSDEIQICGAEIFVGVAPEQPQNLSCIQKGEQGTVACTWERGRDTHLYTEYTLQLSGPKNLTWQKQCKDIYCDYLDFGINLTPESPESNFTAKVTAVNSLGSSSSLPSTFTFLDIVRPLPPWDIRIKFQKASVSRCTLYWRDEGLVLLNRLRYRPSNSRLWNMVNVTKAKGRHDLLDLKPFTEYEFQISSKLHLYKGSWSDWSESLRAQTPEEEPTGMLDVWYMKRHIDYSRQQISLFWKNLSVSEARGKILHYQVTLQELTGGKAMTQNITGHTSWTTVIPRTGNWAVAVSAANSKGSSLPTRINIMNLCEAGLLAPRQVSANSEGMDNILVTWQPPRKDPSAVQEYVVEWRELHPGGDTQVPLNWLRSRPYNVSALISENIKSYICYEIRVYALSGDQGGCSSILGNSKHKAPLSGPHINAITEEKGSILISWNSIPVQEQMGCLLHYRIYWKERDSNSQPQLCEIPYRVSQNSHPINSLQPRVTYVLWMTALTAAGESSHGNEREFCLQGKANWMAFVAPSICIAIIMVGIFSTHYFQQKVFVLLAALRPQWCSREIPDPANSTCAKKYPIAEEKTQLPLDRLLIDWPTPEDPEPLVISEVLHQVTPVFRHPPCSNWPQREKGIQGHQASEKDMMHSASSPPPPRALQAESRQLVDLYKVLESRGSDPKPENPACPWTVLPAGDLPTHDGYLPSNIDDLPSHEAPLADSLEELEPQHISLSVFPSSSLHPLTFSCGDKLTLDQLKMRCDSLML

B1: Fab-IL-12(F60A)-Fc-CD4 Ab (other)
heavy 1: QVQLQQSGPEVVKPGASVKMSCKASGYTFTSYVIHWVRQKPGQGLDWIGYINPYNDGTDYDEKFKGKATLTSDTSTSTAYMELSSLRSEDTAVYYCAREKDNYATGAWFAYWGQGTLVTVSSASTKGPSVFPLAPSSKSTSGGTAALGCLVKDYFPEPVTVSWNSGALTSGVHTFPAVLQSSGLYSLSSVVTVPSSSLGTQTYICNVNHKPSNTKVDKKVEPKSCDKPGSGIWELKKDVYVVELDWYPDAPGEMVVLTCDTPEEDGITWTLDQSSEVLGSGKTLTIQVKEAGDAGQYTCHKGGEVLSHSLLLLHKKEDGIWSTDILKDQKEPKNKTFLRCEAKNYSGRFTCWWLTTISTDLTFSVKSSRGSSDPQGVTCGAATLSAERVRGDNKEYEYSVECQEDSACPAAEESLPIEVMVDAVHKLKYENYTSSFFIRDIIKPDPPKNLQLKPLKNSRQVEVSWEYPDTWSTPHSYFSLTFCVQVQGKSKREKKDRVFTDKTSATVICRKNASISVRAQDRYYSSSWSEWASVPCSGGGGSGGGGSGGGGSGGGGSGRNLPVATPDPGMFPCLHHSQNLLRAVSNMLQKARQTLEFYPCTSEEIDHEDITKDKTSTVEACLPLELTKNESCLNSRETSFITNGSCLASRKTSFMMALCLSSIYEDLKMYQVEFKTMNAKLLMDPKRQIFLDQNMLAVIDELMQALNFNSETVPQKSSLEEPDFYKTKIKLCILLHAFRIRAVTIDRVMSYLNASDKTHTCPPCPAPEDEGGPSVFLFPPKPKDTLMISRTPEVTCVVVDVSHEDPEVKFNWYVDGVEVHNAKTKPREEQYNSTYRVVSVLTVLHQDWLNGKEYKCKVSNKALPAPIEKTISKAKGQPREPQVYVYPPSREEMTKNQVSLTCLVKGFYPSDIAVEWESNGQPENNYKTTPPVLDEDGSFALVSKLTVDKSRWQQGNVFSCSVMHEALHNHYTQKSLSLSPGK
heavy 2: QVQLQQSGPEVVKPGASVKMSCKASGYTFTSYVIHWVRQKPGQGLDWIGYINPYNDGTDYDEKFKGKATLTSDTSTSTAYMELSSLRSEDTAVYYCAREKDNYATGAWFAYWGQGTLVTVSSASTKGPSVFPLAPSSKSTSGGTAALGCLVKDYFPEPVTVSWNSGALTSGVHTFPAVLQSSGLYSLSSVVTVPSSSLGTQTYICNVNHKPSNTKVDKKVEPKSCDKTHTCPPCPAPEKKGGPSVFLFPPKPKDTLMISRTPEVTCVVVDVSHEDPEVKFNWYVDGVEVHNAKTKPREEQYNSTYRVVSVLTVLHQDWLNGKEYKCKVSNKALPAPIEKTISKAKGQPREPQVYVLPPSREEMTKNQVSLLCLVKGFYPSDIAVEWESNGQPENRYMTWPPVLDSDGSFFLYSKLTVDKSRWQQGNVFSCSVMHEALHNHYTQKSLSLSPGK
light: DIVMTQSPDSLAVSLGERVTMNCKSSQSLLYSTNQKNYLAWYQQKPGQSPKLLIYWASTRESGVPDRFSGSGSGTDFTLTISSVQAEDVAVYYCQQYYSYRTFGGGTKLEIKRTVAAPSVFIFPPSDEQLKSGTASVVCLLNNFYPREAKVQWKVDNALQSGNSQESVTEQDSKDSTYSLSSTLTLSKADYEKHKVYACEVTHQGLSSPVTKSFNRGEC
Take B1: in assay [1], the “IFN-γ release, % of rIL-12, activated CD8+ T cells” value amounted to 1.5%. The binding result in assay [2] is given as “no binding”.

B2: Fab-IL-23(WT)-Fc-CD4 Ab (other)
heavy 1: QVQLQQSGPEVVKPGASVKMSCKASGYTFTSYVIHWVRQKPGQGLDWIGYINPYNDGTDYDEKFKGKATLTSDTSTSTAYMELSSLRSEDTAVYYCAREKDNYATGAWFAYWGQGTLVTVSSASTKGPSVFPLAPSSKSTSGGTAALGCLVKDYFPEPVTVSWNSGALTSGVHTFPAVLQSSGLYSLSSVVTVPSSSLGTQTYICNVNHKPSNTKVDKKVEPKSCDKPGSGIWELKKDVYVVELDWYPDAPGEMVVLTCDTPEEDGITWTLDQSSEVLGSGKTLTIQVKEFGDAGQYTCHKGGEVLSHSLLLLHKKEDGIWSTDILKDQKEPKNKTFLRCEAKNYSGRFTCWWLTTISTDLTFSVKSSRGSSDPQGVTCGAATLSAERVRGDNKEYEYSVECQEDSACPAAEESLPIEVMVDAVHKLKYENYTSSFFIRDIIKPDPPKNLQLKPLKNSRQVEVSWEYPDTWSTPHSYFSLTFCVQVQGKSKREKKDRVFTDKTSATVICRKNASISVRAQDRYYSSSWSEWASVPCSGGGGSGGGGSGGGGSGGGGSGRAVPGGSSPAWTQCQQLSQKLCTLAWSAHPLVGHMDLREEGDEETTNDVPHIQCGDGCDPQGLRDNSQFCLQRIHQGLIFYEKLLGSDIFTGEPSLLPDSPVGQLHASLLGLSQLLQPEGHHWETQQIPSLSPSQPWQRLLLRFKILRSLQAFVAVAARVFAHGAATLSPDKTHTCPPCPAPEDEGGPSVFLFPPKPKDTLMISRTPEVTCVVVDVSHEDPEVKFNWYVDGVEVHNAKTKPREEQYNSTYRVVSVLTVLHQDWLNGKEYKCKVSNKALPAPIEKTISKAKGQPREPQVYVYPPSREEMTKNQVSLTCLVKGFYPSDIAVEWESNGQPENNYKTTPPVLDEDGSFALVSKLTVDKSRWQQGNVFSCSVMHEALHNHYTQKSLSLSPGK
heavy 2: QVQLQQSGPEVVKPGASVKMSCKASGYTFTSYVIHWVRQKPGQGLDWIGYINPYNDGTDYDEKFKGKATLTSDTSTSTAYMELSSLRSEDTAVYYCAREKDNYATGAWFAYWGQGTLVTVSSASTKGPSVFPLAPSSKSTSGGTAALGCLVKDYFPEPVTVSWNSGALTSGVHTFPAVLQSSGLYSLSSVVTVPSSSLGTQTYICNVNHKPSNTKVDKKVEPKSCDKTHTCPPCPAPEKKGGPSVFLFPPKPKDTLMISRTPEVTCVVVDVSHEDPEVKFNWYVDGVEVHNAKTKPREEQYNSTYRVVSVLTVLHQDWLNGKEYKCKVSNKALPAPIEKTISKAKGQPREPQVYVLPPSREEMTKNQVSLLCLVKGFYPSDIAVEWESNGQPENRYMTWPPVLDSDGSFFLYSKLTVDKSRWQQGNVFSCSVMHEALHNHYTQKSLSLSPGK
light: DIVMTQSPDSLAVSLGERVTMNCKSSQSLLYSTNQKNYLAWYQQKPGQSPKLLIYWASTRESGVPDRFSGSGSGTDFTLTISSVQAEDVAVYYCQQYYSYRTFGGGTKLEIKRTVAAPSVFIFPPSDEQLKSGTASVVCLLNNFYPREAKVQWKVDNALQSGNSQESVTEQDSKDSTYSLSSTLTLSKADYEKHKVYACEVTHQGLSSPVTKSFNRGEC
B2: in assay [3], the “IFN-γ release, % of rIL-23, activated CD8+ T cells” value turned out to be 21%. Besides, the binding result in assay [2] was “no binding”.

B3: Fab-IL-23(F60A)-Fc-CD4 Ab (other)
heavy 1: QVQLQQSGPEVVKPGASVKMSCKASGYTFTSYVIHWVRQKPGQGLDWIGYINPYNDGTDYDEKFKGKATLTSDTSTSTAYMELSSLRSEDTAVYYCAREKDNYATGAWFAYWGQGTLVTVSSASTKGPSVFPLAPSSKSTSGGTAALGCLVKDYFPEPVTVSWNSGALTSGVHTFPAVLQSSGLYSLSSVVTVPSSSLGTQTYICNVNHKPSNTKVDKKVEPKSCDKPGSGIWELKKDVYVVELDWYPDAPGEMVVLTCDTPEEDGITWTLDQSSEVLGSGKTLTIQVKEAGDAGQYTCHKGGEVLSHSLLLLHKKEDGIWSTDILKDQKEPKNKTFLRCEAKNYSGRFTCWWLTTISTDLTFSVKSSRGSSDPQGVTCGAATLSAERVRGDNKEYEYSVECQEDSACPAAEESLPIEVMVDAVHKLKYENYTSSFFIRDIIKPDPPKNLQLKPLKNSRQVEVSWEYPDTWSTPHSYFSLTFCVQVQGKSKREKKDRVFTDKTSATVICRKNASISVRAQDRYYSSSWSEWASVPCSGGGGSGGGGSGGGGSGGGGSGRAVPGGSSPAWTQCQQLSQKLCTLAWSAHPLVGHMDLREEGDEETTNDVPHIQCGDGCDPQGLRDNSQFCLQRIHQGLIFYEKLLGSDIFTGEPSLLPDSPVGQLHASLLGLSQLLQPEGHHWETQQIPSLSPSQPWQRLLLRFKILRSLQAFVAVAARVFAHGAATLSPDKTHTCPPCPAPEDEGGPSVFLFPPKPKDTLMISRTPEVTCVVVDVSHEDPEVKFNWYVDGVEVHNAKTKPREEQYNSTYRVVSVLTVLHQDWLNGKEYKCKVSNKALPAPIEKTISKAKGQPREPQVYVYPPSREEMTKNQVSLTCLVKGFYPSDIAVEWESNGQPENNYKTTPPVLDEDGSFALVSKLTVDKSRWQQGNVFSCSVMHEALHNHYTQKSLSLSPGK
heavy 2: QVQLQQSGPEVVKPGASVKMSCKASGYTFTSYVIHWVRQKPGQGLDWIGYINPYNDGTDYDEKFKGKATLTSDTSTSTAYMELSSLRSEDTAVYYCAREKDNYATGAWFAYWGQGTLVTVSSASTKGPSVFPLAPSSKSTSGGTAALGCLVKDYFPEPVTVSWNSGALTSGVHTFPAVLQSSGLYSLSSVVTVPSSSLGTQTYICNVNHKPSNTKVDKKVEPKSCDKTHTCPPCPAPEKKGGPSVFLFPPKPKDTLMISRTPEVTCVVVDVSHEDPEVKFNWYVDGVEVHNAKTKPREEQYNSTYRVVSVLTVLHQDWLNGKEYKCKVSNKALPAPIEKTISKAKGQPREPQVYVLPPSREEMTKNQVSLLCLVKGFYPSDIAVEWESNGQPENRYMTWPPVLDSDGSFFLYSKLTVDKSRWQQGNVFSCSVMHEALHNHYTQKSLSLSPGK
light: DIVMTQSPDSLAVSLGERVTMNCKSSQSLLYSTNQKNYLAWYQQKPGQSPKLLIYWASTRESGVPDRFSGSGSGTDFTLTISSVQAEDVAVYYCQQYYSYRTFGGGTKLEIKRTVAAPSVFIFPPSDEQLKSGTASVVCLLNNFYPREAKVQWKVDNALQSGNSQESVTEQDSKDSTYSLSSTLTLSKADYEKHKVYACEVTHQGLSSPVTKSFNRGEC
As to B3, the “IFN-γ release, % of rIL-23, activated CD8+ T cells” value in assay [3] was determined as 1.5%.

B4: Fab-IL-23(E59A)-Fc-CD4 Ab (other)
heavy 1: QVQLQQSGPEVVKPGASVKMSCKASGYTFTSYVIHWVRQKPGQGLDWIGYINPYNDGTDYDEKFKGKATLTSDTSTSTAYMELSSLRSEDTAVYYCAREKDNYATGAWFAYWGQGTLVTVSSASTKGPSVFPLAPSSKSTSGGTAALGCLVKDYFPEPVTVSWNSGALTSGVHTFPAVLQSSGLYSLSSVVTVPSSSLGTQTYICNVNHKPSNTKVDKKVEPKSCDKPGSGIWELKKDVYVVELDWYPDAPGEMVVLTCDTPEEDGITWTLDQSSEVLGSGKTLTIQVKAFGDAGQYTCHKGGEVLSHSLLLLHKKEDGIWSTDILKDQKEPKNKTFLRCEAKNYSGRFTCWWLTTISTDLTFSVKSSRGSSDPQGVTCGAATLSAERVRGDNKEYEYSVECQEDSACPAAEESLPIEVMVDAVHKLKYENYTSSFFIRDIIKPDPPKNLQLKPLKNSRQVEVSWEYPDTWSTPHSYFSLTFCVQVQGKSKREKKDRVFTDKTSATVICRKNASISVRAQDRYYSSSWSEWASVPCSGGGGSGGGGSGGGGSGGGGSGRAVPGGSSPAWTQCQQLSQKLCTLAWSAHPLVGHMDLREEGDEETTNDVPHIQCGDGCDPQGLRDNSQFCLQRIHQGLIFYEKLLGSDIFTGEPSLLPDSPVGQLHASLLGLSQLLQPEGHHWETQQIPSLSPSQPWQRLLLRFKILRSLQAFVAVAARVFAHGAATLSPDKTHTCPPCPAPEDEGGPSVFLFPPKPKDTLMISRTPEVTCVVVDVSHEDPEVKFNWYVDGVEVHNAKTKPREEQYNSTYRVVSVLTVLHQDWLNGKEYKCKVSNKALPAPIEKTISKAKGQPREPQVYVYPPSREEMTKNQVSLTCLVKGFYPSDIAVEWESNGQPENNYKTTPPVLDEDGSFALVSKLTVDKSRWQQGNVFSCSVMHEALHNHYTQKSLSLSPGK
heavy 2: QVQLQQSGPEVVKPGASVKMSCKASGYTFTSYVIHWVRQKPGQGLDWIGYINPYNDGTDYDEKFKGKATLTSDTSTSTAYMELSSLRSEDTAVYYCAREKDNYATGAWFAYWGQGTLVTVSSASTKGPSVFPLAPSSKSTSGGTAALGCLVKDYFPEPVTVSWNSGALTSGVHTFPAVLQSSGLYSLSSVVTVPSSSLGTQTYICNVNHKPSNTKVDKKVEPKSCDKTHTCPPCPAPEKKGGPSVFLFPPKPKDTLMISRTPEVTCVVVDVSHEDPEVKFNWYVDGVEVHNAKTKPREEQYNSTYRVVSVLTVLHQDWLNGKEYKCKVSNKALPAPIEKTISKAKGQPREPQVYVLPPSREEMTKNQVSLLCLVKGFYPSDIAVEWESNGQPENRYMTWPPVLDSDGSFFLYSKLTVDKSRWQQGNVFSCSVMHEALHNHYTQKSLSLSPGK
light: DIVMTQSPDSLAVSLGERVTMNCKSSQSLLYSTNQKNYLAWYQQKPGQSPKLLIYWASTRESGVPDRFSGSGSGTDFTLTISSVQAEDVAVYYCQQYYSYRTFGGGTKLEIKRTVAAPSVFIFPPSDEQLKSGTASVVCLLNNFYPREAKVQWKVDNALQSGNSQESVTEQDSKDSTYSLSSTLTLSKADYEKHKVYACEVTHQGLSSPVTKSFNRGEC
On to B4, for which the “IFN-γ release, % of rIL-23, activated CD8+ T cells” value in assay [3] was determined as 2%.
